Target: Recombinant human TGFβ1 (human, UniProt P01137 279-390)
Experiment: cell-based or functional assay

Recombinant human TGFβ1, sequence (P01137 279-390 limits assumed): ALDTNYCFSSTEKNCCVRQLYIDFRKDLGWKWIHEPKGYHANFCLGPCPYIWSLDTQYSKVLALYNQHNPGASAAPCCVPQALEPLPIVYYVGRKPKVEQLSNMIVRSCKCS

B1: 1D11.16 murine pan-specific anti-TGFβ monoclonal antibody (antibody, from another filing, V domains shown)
VH: QVQLQQSGPELVRPGASVKLSCKASGYIFITYWMNWVKQRPGQGLEWIGQIFPASGSTNYNEMFEGKATLTVDTSSSTAYMQLSSLTSEDSAVYYCARGDGNYALDAMDYWGQGTSVTVSS
VL: DIVLTQSPASLAVSLGQRATISCRASESVDSYGNSFMHWYQQKSGQPPKLLIYLASNLESGVPARFSGSGSRTDFTLTIDPVEADDAATYYCQQNNEDPLTFGAGTKLEIK
How did the % neutralisation at 91 pM antibody, MLEC proliferation assay turn out when B1 was run?
Its % neutralisation at 91 pM antibody, MLEC proliferation assay is 12%.

B2: PET1074B9 germlined IgG4 (antibody, V domains shown)
VH: QVQLVQSGAEVKKPGSSVKVSCKASGYTFSSNVISWVRQAPGQGLEWMGGVIPIVDIANYAQRFKGRVTITADESTSTTYMELSSLRSEDTAVYYCALPRAFVLDAMDYWGQGTLVTVSS
VL: ETVLTQSPGTLSLSPGERATLSCRASQSLGSSYLAWYQQKPGQAPRLLIYGASSRAPGIPDRFSGSGSGTDFTLTISRLEPEDFAVYYCQQYADSPITFGQGTRLEIK
For B2, which “Geometric Mean IC50, MLEC proliferation assay (n = 6; full dose response curve not obtained)” value is on record?
The value was < 1 nM.

Source: patent US20060251658A1 (Sanofi, published 2006)
